Where a chain is given by its changes, count along the chain named.
Tests used:
Assay in all cases: ITC
[1] = molecular target: T1, tH2 (aa91-189) mutant D^141A (vaccinia virus, UniProt P08583 91-189, D^141A)
T1 sequence: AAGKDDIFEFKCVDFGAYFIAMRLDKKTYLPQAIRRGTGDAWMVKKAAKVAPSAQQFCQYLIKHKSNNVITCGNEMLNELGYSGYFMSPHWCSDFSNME

[2] = molecular target: T2, tH2 (aa91-189) mutant W^132A (vaccinia virus, UniProt P08583 91-189, W^132A)
T2 sequence: T1 sequence with W42A, A51D

[3] = molecular target: T3, tH2 (aa91-189) mutant G^127G^129A (vaccinia virus, UniProt P08583 91-189, G^127G^129A | G^127G^129A)
T3 sequence: T1 sequence with G37A, G39A, A51D

[4] = molecular target: T4, tH2 (aa91-189) mutant K^116K^117A (vaccinia virus, UniProt P08583 91-189, K^116K^117A | K^116K^117A)
T4 sequence: T1 sequence with K26A, K27A, A51D

[5] = molecular target: T5, tH2 (aa91-189) mutant D^130A (vaccinia virus, UniProt P08583 91-189, D^130A)
T5 sequence: T1 sequence with D40A, A51D

[6] = molecular target: T6, tH2 (aa91-189) mutant R^125R^126A (vaccinia virus, UniProt P08583 91-189, R^125R^126A | R^125R^126A)
T6 sequence: T1 sequence with R35A, R36A, A51D

B1: recombinant A28 (aa56-146) (domain or fragment)
chain: DRRVQDVNDTISDVKQKWRCVVYPGNGFVSASIFGFQAEVGPNNTRSIRKFNTMQQCIDFTFSDVININIYNPCVVPNINNAECQFLKSVL
B1: binds [1]; binds [2]; binds [3]. The Kd [4] was about 5.3 µM, the binding result [5] was “binds” and the binding result [6] was “binds”.
